{"source": "the supplement of paper PMC9732359", "test": "protein stability index of a GFP-peptide fusion (yeast GPS) (PSI 1-4); higher = more stable; sorted into four equal gates, so the index is relative within each strain", "method_in_brief": "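Each library plasmid carries Cherry plus GFP with a tiled 17-residue yeast protein peptide fused downstream, and the pooled library was carried in yeast. Mid-log cultures in leucine-free medium were sorted into four equal gates by GFP/Cherry ratio. Reads from Illumina sequencing of PCR-amplified plasmids from each gate were assigned to strains by barcodes. Per peptide, the protein stability index was computed as the summed products of gate read frequency and gate number.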", "note": "± gives the uncertainty stated by the source.", "data": [{"sequence": "VCKKADVDLHKRAGELT [RPS18A]", "values": [{"measurement": "protein stability index", "setting": "doa10∆", "result": "3.23 ± 0.15"}, {"measurement": "protein stability index", "setting": "pdr5∆", "result": "3.31 ± 0.12"}, {"measurement": "protein stability index", "setting": "san1∆", "result": "3.39 ± 0.2"}, {"measurement": "protein stability index", "setting": "ubr1∆", "result": "3.46 ± 0.11"}]}, {"sequence": "VDASPNDVTRRTVKNIL [CSL4]", "values": [{"measurement": "protein stability index", "setting": "doa10∆", "result": "3.19 ± 0.085"}, {"measurement": "protein stability index", "setting": "pdr5∆", "result": "3.18 ± 0.085"}, {"measurement": "protein stability index", "setting": "san1∆", "result": "3.1 ± 0.078"}, {"measurement": "protein stability index", "setting": "ubr1∆", "result": "3.3 ± 0.063"}]}, {"sequence": "VDDDQDYVVAPGVNREI [GRR1]", "values": [{"measurement": "protein stability index", "setting": "doa10∆", "result": "3.17 ± 0.13"}, {"measurement": "protein stability index", "setting": "pdr5∆", "result": "3.13 ± 0.15"}, {"measurement": "protein stability index", "setting": "san1∆", "result": "3.31 ± 0.2"}, {"measurement": "protein stability index", "setting": "ubr1∆", "result": "3.29 ± 0.2"}]}, {"sequence": "VDENETVLESLGRLNKL [LIN1]", "values": [{"measurement": "protein stability index", "setting": "doa10∆", "result": "2.79 ± 0.075"}, {"measurement": "protein stability index", "setting": "pdr5∆", "result": "3.03 ± 0.073"}, {"measurement": "protein stability index", "setting": "san1∆", "result": "2.88 ± 0.069"}, {"measurement": "protein stability index", "setting": "ubr1∆", "result": "3.03 ± 0.053"}]}, {"sequence": "VDFQNDLKDILEKVVPL [BRR2]", "values": [{"measurement": "protein stability index", "setting": "doa10∆", "result": "3.17 ± 0.18"}, {"measurement": "protein stability index", "setting": "pdr5∆", "result": "2.88 ± 0.13"}, {"measurement": "protein stability index", "setting": "san1∆", "result": "2.9 ± 0.15"}, {"measurement": "protein stability index", "setting": "ubr1∆", "result": "2.69 ± 0.066"}]}, {"sequence": "VDIDDPDMMVDSFTMPN [SNF2]", "values": [{"measurement": "protein stability index", "setting": "doa10∆", "result": "3.27 ± 0.11"}, {"measurement": "protein stability index", "setting": "pdr5∆", "result": "2.86 ± 0.094"}, {"measurement": "protein stability index", "setting": "san1∆", "result": "2.71 ± 0.085"}, {"measurement": "protein stability index", "setting": "ubr1∆", "result": "3.15 ± 0.089"}]}, {"sequence": "VDLWSVGCIFAELIGLQ [SSN3]", "values": [{"measurement": "protein stability index", "setting": "doa10∆", "result": "3.18 ± 0.097"}, {"measurement": "protein stability index", "setting": "pdr5∆", "result": "3.16 ± 0.13"}, {"measurement": "protein stability index", "setting": "san1∆", "result": "3.35 ± 0.036"}, {"measurement": "protein stability index", "setting": "ubr1∆", "result": "3.17 ± 0.12"}]}, {"sequence": "VDNTTEQSNSRKRTRSE [YCG1]", "values": [{"measurement": "protein stability index", "setting": "doa10∆", "result": "3.27 ± 0.18"}, {"measurement": "protein stability index", "setting": "san1∆", "result": "2.83 ± 0.1"}]}, {"sequence": "VDRLKIGGSLARIALRH [RPS25A]", "values": [{"measurement": "protein stability index", "setting": "doa10∆", "result": "2.66 ± 0.13"}, {"measurement": "protein stability index", "setting": "pdr5∆", "result": "2.1 ± 0.07"}, {"measurement": "protein stability index", "setting": "san1∆", "result": "2.01 ± 0.073"}, {"measurement": "protein stability index", "setting": "ubr1∆", "result": "1.8 ± 0.096"}]}, {"sequence": "VDVLGTHSQTGTQQSNM [SIR4]", "values": [{"measurement": "protein stability index", "setting": "doa10∆", "result": "3.12 ± 0.18"}, {"measurement": "protein stability index", "setting": "pdr5∆", "result": "2.91 ± 0.17"}, {"measurement": "protein stability index", "setting": "ubr1∆", "result": "3.2 ± 0.067"}]}, {"sequence": "VDVLVISSHSHPVSLIS [RRP42]", "values": [{"measurement": "protein stability index", "setting": "doa10∆", "result": "1.5 ± 0.046"}, {"measurement": "protein stability index", "setting": "pdr5∆", "result": "1.53 ± 0.048"}, {"measurement": "protein stability index", "setting": "san1∆", "result": "1.57 ± 0.062"}, {"measurement": "protein stability index", "setting": "ubr1∆", "result": "1.67 ± 0.03"}]}, {"sequence": "VEESGEHVILGNGELYM [SNU114]", "values": [{"measurement": "protein stability index", "setting": "doa10∆", "result": "3.31 ± 0.08"}, {"measurement": "protein stability index", "setting": "pdr5∆", "result": "3.12 ± 0.066"}, {"measurement": "protein stability index", "setting": "san1∆", "result": "3.3 ± 0.051"}, {"measurement": "protein stability index", "setting": "ubr1∆", "result": "3.13 ± 0.057"}]}, {"sequence": "VEEVIKLVRDSFTSATE [PRE7]", "values": [{"measurement": "protein stability index", "setting": "doa10∆", "result": "3.06 ± 0.078"}, {"measurement": "protein stability index", "setting": "pdr5∆", "result": "3.33 ± 0.066"}, {"measurement": "protein stability index", "setting": "san1∆", "result": "3.18 ± 0.052"}, {"measurement": "protein stability index", "setting": "ubr1∆", "result": "3 ± 0.061"}]}, {"sequence": "VEHLLRDVRDQAAGGLS [RPN8]", "values": [{"measurement": "protein stability index", "setting": "doa10∆", "result": "2.7 ± 0.13"}, {"measurement": "protein stability index", "setting": "pdr5∆", "result": "1.99 ± 0.17"}, {"measurement": "protein stability index", "setting": "san1∆", "result": "2.81 ± 0.17"}, {"measurement": "protein stability index", "setting": "ubr1∆", "result": "1.07 ± 0.12"}]}, {"sequence": "VEIAYHKCDELITLFNK [RPO31]", "values": [{"measurement": "protein stability index", "setting": "doa10∆", "result": "3.16 ± 0.19"}, {"measurement": "protein stability index", "setting": "pdr5∆", "result": "3.01 ± 0.087"}, {"measurement": "protein stability index", "setting": "san1∆", "result": "2.99 ± 0.078"}, {"measurement": "protein stability index", "setting": "ubr1∆", "result": "2.96 ± 0.1"}]}, {"sequence": "VEINSSESDLDEDKNFP [ESC2]", "values": [{"measurement": "protein stability index", "setting": "doa10∆", "result": "2.99 ± 0.063"}, {"measurement": "protein stability index", "setting": "pdr5∆", "result": "2.66 ± 0.056"}, {"measurement": "protein stability index", "setting": "san1∆", "result": "3.25 ± 0.052"}, {"measurement": "protein stability index", "setting": "ubr1∆", "result": "3.16 ± 0.057"}]}, {"sequence": "VEISLVNGAKNLVVSGP [FAS1]", "values": [{"measurement": "protein stability index", "setting": "doa10∆", "result": "2.76 ± 0.15"}, {"measurement": "protein stability index", "setting": "pdr5∆", "result": "2.6 ± 0.1"}, {"measurement": "protein stability index", "setting": "san1∆", "result": "2.3 ± 0.1"}, {"measurement": "protein stability index", "setting": "ubr1∆", "result": "2.51 ± 0.21"}]}, {"sequence": "VEKGTPLGKILLKGDNI [SME1]", "values": [{"measurement": "protein stability index", "setting": "doa10∆", "result": "3.58 ± 0.088"}, {"measurement": "protein stability index", "setting": "pdr5∆", "result": "3.43 ± 0.093"}, {"measurement": "protein stability index", "setting": "san1∆", "result": "3.38 ± 0.14"}, {"measurement": "protein stability index", "setting": "ubr1∆", "result": "3.59 ± 0.078"}]}, {"sequence": "VEKGVNPTKSKEILDNI [ECM29]", "values": [{"measurement": "protein stability index", "setting": "doa10∆", "result": "3.26 ± 0.14"}, {"measurement": "protein stability index", "setting": "pdr5∆", "result": "3.5 ± 0.12"}, {"measurement": "protein stability index", "setting": "san1∆", "result": "3.37 ± 0.25"}, {"measurement": "protein stability index", "setting": "ubr1∆", "result": "3.62 ± 0.14"}]}, {"sequence": "VEKNEIGKMYDEYLGSH [NNF1]", "values": [{"measurement": "protein stability index", "setting": "doa10∆", "result": "3.38 ± 0.17"}, {"measurement": "protein stability index", "setting": "pdr5∆", "result": "3.3 ± 0.15"}, {"measurement": "protein stability index", "setting": "san1∆", "result": "3.28 ± 0.12"}, {"measurement": "protein stability index", "setting": "ubr1∆", "result": "3.18 ± 0.086"}]}, {"sequence": "VENLTVAQECIAFLKKQ [SMC1]", "values": [{"measurement": "protein stability index", "setting": "doa10∆", "result": "2.12 ± 0.065"}, {"measurement": "protein stability index", "setting": "pdr5∆", "result": "2.47 ± 0.07"}, {"measurement": "protein stability index", "setting": "san1∆", "result": "2.42 ± 0.086"}, {"measurement": "protein stability index", "setting": "ubr1∆", "result": "1.98 ± 0.051"}]}, {"sequence": "VEQDEGQCRTELEGSFN [YCS4]", "values": [{"measurement": "protein stability index", "setting": "doa10∆", "result": "3.38 ± 0.081"}, {"measurement": "protein stability index", "setting": "pdr5∆", "result": "3.48 ± 0.098"}, {"measurement": "protein stability index", "setting": "san1∆", "result": "3.12 ± 0.14"}, {"measurement": "protein stability index", "setting": "ubr1∆", "result": "3.49 ± 0.067"}]}, {"sequence": "VESPDKNVRFRVLQLLA [YCG1]", "values": [{"measurement": "protein stability index", "setting": "doa10∆", "result": "1.09 ± 0.098"}, {"measurement": "protein stability index", "setting": "pdr5∆", "result": "1.4 ± 0.12"}, {"measurement": "protein stability index", "setting": "san1∆", "result": "1.18 ± 0.13"}, {"measurement": "protein stability index", "setting": "ubr1∆", "result": "1.65 ± 0.13"}]}, {"sequence": "VFENYVKKTGENEISSL [CDC53]", "values": [{"measurement": "protein stability index", "setting": "doa10∆", "result": "3.14 ± 0.069"}, {"measurement": "protein stability index", "setting": "pdr5∆", "result": "2.74 ± 0.072"}, {"measurement": "protein stability index", "setting": "san1∆", "result": "2.9 ± 0.07"}, {"measurement": "protein stability index", "setting": "ubr1∆", "result": "3.15 ± 0.042"}]}, {"sequence": "VFKATSSTDEESWFKAL [FAS1]", "values": [{"measurement": "protein stability index", "setting": "doa10∆", "result": "2.92 ± 0.13"}, {"measurement": "protein stability index", "setting": "pdr5∆", "result": "3 ± 0.15"}, {"measurement": "protein stability index", "setting": "san1∆", "result": "2.75 ± 0.082"}, {"measurement": "protein stability index", "setting": "ubr1∆", "result": "2.88 ± 0.084"}]}, {"sequence": "VFKLSTNLISKISLLRP [SWP82]", "values": [{"measurement": "protein stability index", "setting": "doa10∆", "result": "2.11 ± 0.099"}, {"measurement": "protein stability index", "setting": "pdr5∆", "result": "2.43 ± 0.1"}, {"measurement": "protein stability index", "setting": "san1∆", "result": "2.13 ± 0.18"}, {"measurement": "protein stability index", "setting": "ubr1∆", "result": "2.87 ± 0.088"}]}]}
